What was measured:
[1] = target: human FcγRIIIa-Phe158, soluble ectodomain (human) (UniProt P08637); assay: SPR; FcγRIIIa ectodomains immobilised on Series S CM5 chips by amine coupling (Phe158 560 RU, Val158 260 RU); Biacore T200; antibody injected (Rituxan 21,870-30 nM, recombinant mAb 810-3.333 nM, threefold dilutions); blank surface and buffer subtracted; 1:1 Langmuir binding model
[2] = target: human FcγRIIIa-Val158, soluble ectodomain (human); assay: as above

Sequence of UniProt P08637 (P08637 17-208): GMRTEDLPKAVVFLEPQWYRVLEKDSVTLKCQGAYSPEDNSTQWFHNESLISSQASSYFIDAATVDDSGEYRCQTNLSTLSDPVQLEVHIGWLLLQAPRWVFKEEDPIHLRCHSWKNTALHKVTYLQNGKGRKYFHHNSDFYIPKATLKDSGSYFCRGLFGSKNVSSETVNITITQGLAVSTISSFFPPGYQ

Kd [1]: 6.8 µM
koff [1]: 0.17 s⁻¹
kon [1]: 25000 M⁻¹ s⁻¹
Kd [2]: 0.94 µM
koff [2]: 0.043 s⁻¹
kon [2]: 46000 M⁻¹ s⁻¹
Substance: Rituxan (antibody)

— PMC6123398
